Measurements published in US20230233645A1, “EFFECTIVE TREATMENTS FOR VASCULAR ASSOCIATED MACULOPATHY, SEVERE MACULOPATHY, LATE-STAGE MACULOPATHY, AND ABERRANT CHORIOCAPILLARIS” (UNIVERSITY OF UTAH RESEARCH FOUNDATION, priority 2011, published 2023).

Assays:
[1] = biological target: HTRA1 (Homo sapiens, UniProt Q92743); details: binds covalently to the active-site serine of HTRA1; cited from earlier work
[2] = tested on: DQ elastin; assay: In vitro elastin degradation assay using DQ elastin; type: biochemical; details: DQ elastin substrate
Description: Therefore, studies were performed to determine whether HTRA1 degrades elastin, a major component of Bruch's membrane. Recombinant HTRA1 was incubated with dye-labeled elastin at 37° C. for two hrs and the fluorescence of the released elastin peptides was monitored at 513 nm. […] In an additional positive control assay, HTRA1 elastase activity was measured by fluorescence using various concentrations of elastase enzyme starting with 0.04 ng/well of porcine pancreatic elastase and 100 ng/well of ProteaImmun HtrA1. DQ Elastin substrate was 25 ug/ml.
Recombinant HtrA1 protein expressed and purified from Sf9 cells was purchased from ProteaImmun (Cat. #30600103). The HtrA1 elastase activity was measured using a fluorescent EnzChekElastase Assay Kit from Invitrogen (Cat. #E12056) using the protocol provided, except substrate concentration was 12.5 µg/mL. HtrA1 concentration was titrated from 200-12.5 ng/well in two-fold dilutions. Activity was measured in 30-minute increments for a total of 2 hours.
The explanation for the elastin degradation in both the Bruch's membrane and the choroid vessels in the HTRA1 mice is that the protease activity of overexpressed HTRA1, which is secreted from RPE, caused the degeneration. Since HTRA1 was not known to have elastase activity, an in vitro elastin degradation assay was performed using DQ elastin, a soluble elastin labeled with quenched BODIPY FL dye, as a substrate. Purified recombinant human HTRA1 degraded elastin with a specific activity of 4.4±0.8 u/mg (n=3). […] To eliminate the possibility that the depletion of the elastic layers of the choroidal vessels and Bruch's membrane was the result of downregulation of elastin expression, we analyzed the protein level of soluble elastin in the RPE/choroid of hHTRA1^+ and WT mice by western blot. […] This is similar to what has been observed in human donors with AMD and with aberrant choriocapillaris lobules.

HTRA1, sequence (Q92743 23-480): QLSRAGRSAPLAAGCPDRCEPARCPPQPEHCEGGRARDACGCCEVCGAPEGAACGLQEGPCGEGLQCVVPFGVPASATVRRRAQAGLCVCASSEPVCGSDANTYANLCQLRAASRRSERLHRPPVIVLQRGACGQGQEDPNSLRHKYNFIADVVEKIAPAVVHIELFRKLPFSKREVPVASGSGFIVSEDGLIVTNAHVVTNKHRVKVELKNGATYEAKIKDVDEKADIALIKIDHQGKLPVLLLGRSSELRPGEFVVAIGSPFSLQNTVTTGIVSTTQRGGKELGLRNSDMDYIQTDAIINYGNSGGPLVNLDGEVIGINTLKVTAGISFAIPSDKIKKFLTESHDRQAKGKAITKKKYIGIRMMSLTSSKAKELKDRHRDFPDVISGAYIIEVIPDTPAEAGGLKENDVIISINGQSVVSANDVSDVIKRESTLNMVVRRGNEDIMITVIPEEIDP

For DPMFKLboroV, which IC50 [1] is on record?
Its IC50 is 2600 nM.

For “porcine pancreas elastase: reference elastase enzyme”, which “specific activity of elastin degradation” value [2] is on record?
Its value is 135±5.5 u/mg.

With “recombinant human HTRA1: purified recombinant human HTRA1 serine protease” as the substance, how does the “elastase activity, times less than that of porcine pancreas elastase” value [2] read?
Its value is roughly 30 times.

And the “specific activity of elastin degradation” value [2]?
The value was 4.4±0.8 u/mg.
